From paper PMC3979375 (2014)

Tests used:
[1] = target: T1, GST-GUK, fusion protein of GST and the GUK domain of SAP102 (Rattus norvegicus (Rat), UniProt Q62936); assay: GST pulldown
T1 chain: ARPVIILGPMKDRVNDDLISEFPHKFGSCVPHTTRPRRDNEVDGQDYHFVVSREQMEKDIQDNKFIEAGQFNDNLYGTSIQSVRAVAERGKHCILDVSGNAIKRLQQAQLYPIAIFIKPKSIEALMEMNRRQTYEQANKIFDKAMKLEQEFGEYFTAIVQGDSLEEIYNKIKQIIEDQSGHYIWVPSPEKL

[2] = target: T2, GST-SH3-GUK, fusion protein of GST and the combined SH3-GUK domain of SAP102 (Rattus norvegicus (Rat), UniProt Q62936); assay: GST pulldown / amylose pulldown
T2 chain: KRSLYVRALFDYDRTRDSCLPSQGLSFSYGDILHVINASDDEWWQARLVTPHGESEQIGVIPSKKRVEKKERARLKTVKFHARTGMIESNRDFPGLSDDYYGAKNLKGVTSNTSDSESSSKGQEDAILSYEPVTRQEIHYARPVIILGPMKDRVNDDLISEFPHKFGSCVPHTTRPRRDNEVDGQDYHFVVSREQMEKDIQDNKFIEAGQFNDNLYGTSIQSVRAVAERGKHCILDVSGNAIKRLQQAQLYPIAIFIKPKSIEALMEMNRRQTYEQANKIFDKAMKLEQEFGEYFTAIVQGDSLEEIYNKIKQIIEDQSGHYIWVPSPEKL

[3] = target: T3, GST-SH3, fusion protein of GST and the SH3 domain of SAP102 (Rattus norvegicus (Rat), UniProt Q62936); assay: GST pulldown / amylose pulldown
T3 chain: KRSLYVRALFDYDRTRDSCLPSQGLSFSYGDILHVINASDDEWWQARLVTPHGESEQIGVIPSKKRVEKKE

Measured: binding result

B1: MBP-A2A-CT, fusion protein comprising maltose-binding protein and the carboxyl terminus of the A2A receptor (protein)
chain: RIREFRQTFRKIIRSHVLRQQEPFKAAGTSARVLAAHGSDGEQVSLRLNGHPPGVWANGSAPHPERRPNGYALGLVSGGSAQESQGNTGLPDVELLSHELKGVCPEPPGLDDPLAQDGAGVS
binds: all assays above
